The values below come from patent US20240166695A1 (University of California, published 2024).

The term Kd denotes a measure of binding affinity in units of concentration. Low values mean a tighter complex, high ones a looser complex.

Experiment [1] concerns the target TRPV1. In words: cell-based or functional assay.
The target in experiment [2] is T1, ARD of TRPV1 (Rattus norvegicus (Rat), UniProt O35433 101-364).
T1 construct: Purified from E. coli and immobilised on a CM5 chip by amine coupling; also called TRPV1 ARD; ankyrin repeat-like domain
T1 sequence (O35433 other isoform, or with tags, fused parts or gaps limits assumed): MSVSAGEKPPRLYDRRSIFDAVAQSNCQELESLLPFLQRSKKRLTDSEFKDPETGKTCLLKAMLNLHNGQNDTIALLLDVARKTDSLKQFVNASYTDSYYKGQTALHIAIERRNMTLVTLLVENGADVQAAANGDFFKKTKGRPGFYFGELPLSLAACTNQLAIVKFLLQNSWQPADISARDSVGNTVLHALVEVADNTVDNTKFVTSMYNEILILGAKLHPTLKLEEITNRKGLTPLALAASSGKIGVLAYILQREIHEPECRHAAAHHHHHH
Put plainly: SPR steady state, ARD immobilised on CM5 chip, design as analyte, 25 C.
Experimental: The purified ARD was immobilized on the CM5 SPR sensor chip by an amine-coupling procedure. SPR experiments were conducted on the Biacore T3000 instrument (GE healthcare). The designed proteins were perfused as analytes. Steady-state SPR responses were measured and used to determine the KD values. In all experiments, the analysis was performed at 25° C., with an association time of 120 see at a flow rate of 20 μL/min.

B1: De1 (designed binder)
chain: NGYSSEDKLRIAKRHLLPKQIERNALKKGELFVSEFAILGIILFYTDEAGVRGLEREISKLCRKAVKQLLLDKSTTSSHASGFHLHDYLGVMR
notes: For SPR: expressed from pET-32a in E. coli BL21(DE3), purified on a Ni column and by HPLC; also called Del; designed protein De1
Take B1: the “EC50 of capsaicin activation of TRPV1 co-expressed with De1 (whole-cell patch clamp)” value in experiment [1] was found to be 50.9 nM. In experiment [2], this molecule showed a Kd of 26.5 nM.
